Results published in patent publication US20230091471A1 (APELLIS PHARMACEUTICALS, published 2023).

B1: CA28-AEEAc-Lys(mPEG40K-carbonyl) (peptide)
peptide: ICVWQDWGAHRCTK
modifications: not fully specified; N-terminal acetyl; 1-methyl-Trp at 4; disulfide Cys2-Cys12; AEEAc after Thr13; Lys15 side chain coupled to linear 40 kD mPEG (NOF SUNBRIGHT ME-400TS); C-terminal amide
B2: CA28-AEEAc-Lys(mPEG40K-hexanoyl) (peptide)
peptide: ICVWQDWGAHRCTK
modifications: not fully specified; N-terminal acetyl; 1-methyl-Trp at 4; disulfide Cys2-Cys12; AEEAc after Thr13; Lys15 side chain coupled to linear 40 kD mPEG (NOF SUNBRIGHT ME-400HS); C-terminal amide
B3: CA28-AEEAc-Lys-(PEG40k) (peptide)
peptide: ICVWQDWGAHRCTK
modifications: not fully specified; N-terminal acetyl; 1-methyl-Trp at 4; disulfide Cys2-Cys12; AEEAc after Thr13; Lys15 side chain coupled to linear 40 kD mPEG (NOF SUNBRIGHT ME-400GS); C-terminal amide
B4: CA28-AEEAc-Lys(mPEG40K-succinyl) (peptide)
peptide: ICVWQDWGAHRCTK
modifications: not fully specified; N-terminal acetyl; 1-methyl-Trp at 4; disulfide Cys2-Cys12; AEEAc after Thr13; Lys15 side chain coupled to linear 40 kD mPEG (NOF SUNBRIGHT ME-400CS); C-terminal amide
B5: CA28-2GS-BF (peptide)
peptide: ICVWQDWGAHRCTK
modifications: not fully specified; N-terminal acetyl; 1-methyl-Trp at 4; disulfide Cys2-Cys12; AEEAc after Thr13; Lys side chain coupled to one end of a bifunctional linear 40 kD PEG of the GS type (NHS-OCO(CH2)3COO-PEG-CO(CH2)3COO-NHS); C-terminal …

Key:
[1] = molecular target: T1, human complement component C3 (human, UniProt P01024 23-1663); test: cell-based or functional assay
[2] = molecular target: T1, human complement component C3; test: cell-based or functional assay; remark: listed apart in the source

IC50 (read off the curve); classical pathway C3b deposition ELISA, human plasma [1] | further results | Binder
~600 nM |  | B1
~600 nM |  | B2
~600 nM |  | B3
~600 nM |  | B4
 | Q1 (Type III cells with high C3d deposition) % Parent, modified Ham's assay, 50 ug/ml [2]: 0.01%; Q2 (Type I and II cells with high C3d deposition) % Parent, modified Ham's assay, 50 ug/ml [2]: 0.01%; Q3 (Type III cells without significant C3d deposition) % Parent, modified Ham's assay, 50 ug/ml [2]: 61.5%; Q4 (Type I and II cells without significant C3d deposition) % Parent, modified Ham's assay, 50 ug/ml [2]: 38.5% | B5
